From US20080242590A1, “New Method 706” (ASTRAZENECA AB, priority 2007, published 2008)

Key:
[1] = Plasma exposure (Example 24); format: in vivo, C57BL/6 mice
Protocol: 13 weeks old female C57BL/6 mice (10 mice/group) received vehicle or hFc-Nep at 1 or 5 mg/kg as a single intravenous injection. M-550426 was administrated per orally at 300 μmol/kg 3 hours before termination. A blank group was also included in the study.
Blood was sampled from vehicle- and compound-treated animals at 1.5 and 3 hours after dose. Blood was withdrawn from anaesthetized mice by heart puncture into pre-chilled microtainer tubes containing EDTA. Blood samples were immediately put on ice prior to centrifugation. Plasma was prepared by centrifugation for 10 minutes at approximately 3000×g at +4° C. within 20 minutes from sampling. After blood sampling, mice were terminated. […] Mouse Aβ40 levels in plasma were analysed by commercial ELISA kit obtained from Biosource. The concentrations of Fc-Nep in plasma and in the formulations were assayed according to the procedures described in Example 27.

[2] = tested on: fluorogenic peptide substrate V—Mca-Arg-Pro-Gly-Phe-Ser-Ala-Phe-Lys(Dnp)-OH; experiment: Neprilysin enzyme activity FRET assay, purified protein; format: biochemical; conditions: purified fusion protein
Protocol: The Neprilysin enzymatic activity was determined in a fluorescence resonance energy transfer (FRET) assay. Recombinant Human Neprilysin (R&D Systems), culture medium from Neprilysin or Fc-Neprilysin producing cells (AZ Sodertalje) or purified Neprilysin or Fc-Neprilysin was added into 96-well plate containing 10 μM of fluorogenic peptide substrate V—Mca-Arg-Pro-Gly-Phe-Ser-Ala-Phe-Lys(Dnp)-OH (R&D Systems). The final concentration of the control recombinant human Neprilysin was 0.1 or 0.25 μg/ml. 10 μM of Neprilysin inhibitor phosphoramidone (BIOMOL) was added into some wells in order to control the specificity of the signal in the assay and verify the specific Neprilysin activity. Following addition of all components to wells, plate was immediately placed into a fluorescent plate reader (Ascent) and signal was recorded for every minute for 20 minutes at the excitation 340 nm and emission 405 nm. The activity of enzyme was evaluated by calculating the velocity of reaction−Slope coefficient=ΣΔRFU/Δt. In order to compare the specific activity of the commercial recombinant Neprilysin and Fc-Neprilysin fusion protein, we introduced the specific activity coefficient, which is calculated according to this formula: Specific activity=slope coefficient/pmol of Neprilysin or monomer of Fc-Neprilysin in assay. […]

amyloid β 1-40 peptide = experiment: Degradation of amyloid β 1-40 peptide by Fc-Neprilysin and Neprilysin in buffer; format: biochemical; conditions: 2.4 μg/ml, Aβ 1-40 300 nM, 2.5 hours at 37° C., buffer
Protocol: The assay is measuring the remaining amyloid β 1-40 peptide (Bachem) concentration following its incubation in the presence of Neprilysin (R&D Systems) or Fc-Neprilysin with or without Neprilysin inhibitor. 100 μl of reaction mixture containing amyloid β 1-40 peptide (final concentrations, 300, 30 or 3 nM) and/or Neprilysin (2.4 μg/ml), and/or Fc-Neprilysin construct (2.4 μg/ml), and/or Phosphoramidone (10 μM) was incubated in a round bottom 96-well polypropylene plate at 37° C. for 2.5 hours. Following incubation, 10 μl of reaction mixture was transferred into Thermo-Fast© 96-well PCR plate (Abgene, UK) containing 10 μl of Standard Diluent (Gyros AB). Amyloid β 1-40 concentration was determined using Gyrolab Workstation LIF system. Biotinylated anti-amyloid β antibodies (6E10; final concentration 50 μg/ml; Signet) were used as capturing antibodies and polyclonal anti-human amyloid β antibodies (44-348; Biosource) labeled with Alexa Fluor 647 dye (Molecular probes) were used as detection antibodies. Amyloid β 1-40 peptide concentration measurement performed according to the manufacturers protocol using Gyrolab Bioaffy™ Software Package Version 1.8 (Gyros AB). Amyloid β 1-40 peptide degradation by Neprilysin was calculated as a percentage of Amyloid β 1-40 peptide left after incubation in the presence of Neprilysin compared to the amyloid β 1-40 peptide concentration in the absence of Neprilysin.

Aβ 1-42 = experiment: Degradation of Aβ 1-42 in human plasma pool (Example 28); format: biochemical; conditions: room temperature, 1 hour
Protocol: Blood from twelve individuals (6 females and 6 males) were collected into pre-chilled heparin-plasma tubes at the healthcare centre (AstraZeneca) at three different time points. Plasma was prepared by centrifugation at 2500×g for 20 min at 4° C. Plasma samples were collected and transferred to pre-chilled polypropylene tubes and immediately frozen and stored at −70° C. prior to use. Plasma was thawed and pooled from 12 individuals just before the experiment. Aβ 1-40 and 1-42 in plasma pool was degraded by human Fc-Nep or mouse Fc-Nep with corresponding vehicles (50 mM Tris-HCl, 150 mM NaCl pH 7.5). The following final concentrations of the Fc-Nep constructs were used, 100, 32, 10, 3.2, 1, 0.3, 0.1 and […] and the degradation occurred at room temperature for 1 hour while shaking on an orbital shaker. The enzymatic reaction was stopped by adding Phosphoramidone (10 μM final concentration). Concentration of amyloid β 1-40 in human plasma pool was measured using ELISA kit (Biosource; KHB3481) according to the manufacturers instructions.
A final concentration of 4.7 mM EDTA was added to the tubes before the concentration of Aβ42 was analyzed using ELISA kit Innotest® β-Amyloid1-42 (Innogenetics, lot#177462, ref#80177) according to the manufacturers instructions.

B1: Fc-Neprilysin: extracellular domain of human Neprilysin fused to the human IgG2 Fc domain (including hinge), Fc at N-terminus; SEQ ID NO 11 (protein)
chain: ERKCCVECPPCPAPPVAGPSVFLFPPKPKDTLMISRTPEVTCVVVDVSHEDPEVQFNWYVDGVEVHNAKTKPREEQFNSTFRVVSVLTVVHQDWLNGKEYKCKVSNKGLPAPIEKTISKTKGQPREPQVYTLPPSREEMTKNQVSLTCLVKGFYPSDIAVEWESNGQPENNYKTTPPMLDSDGSFFLYSKLTVDKSRWQQGNVFSCSVMHEALHNHYTQKSLSLSPGKYDDGICKSSDCIKSAARLIQNMDATTEPCTDFFKYACGGWLKRNVIPETSSRYGNFDILRDELEVVLKDVLQEPKTEDIVAVQKAKALYRSCINESAIDSRGGEPLLKLLPDIYGWPVATENWEQKYGASWTAEKAIAQLNSKYGKKVLINLFVGTDDKNSVNHVIHIDQPRLGLPSRDYYECTGIYKEACTAYVDFMISVARLIRQEERLPIDENQLALEMNKVMELEKEIANATAKPEDRNDPMLLYNKMTLAQIQNNFSLEINGKPFSWLNFTNEIMSTVNISITNEEDVVVYAPEYLTKLKPILTKYSARDLQNLMSWRFIMDLVSSLSRTYKESRNAFRKALYGTTSETATWRRCANYVNGNMENAVGRLYVEAAFAGESKHVVEDLIAQIREVFIQTLDDLTWMDAETKKRAEEKALAIKERIGYPDDIVSNDNKLNNEYLELNYKEDEYFENIIQNLKFSQSKQLKKLREKVDKDEWISGAAVVNAFYSSGRNQIVFPAGILQPPFFSAQQSNSLNYGGIGMVIGHEITHGFDDNGRNFNKDGDLVDWWTQQSASNFKEQSQCMVYQYGNFSWDLAGGQHLNGINTLGENIADNGGLGQAYRAYQNYIKKNGEEKLLPGLDLNHKQLFFLNFAQVWCGTYRPEYAVNSIKTDVHSPGNFRIIGTLQNSAEFSEAFHCRKNSYMNPEKKCRVW
- Mean plasma exposure ([1]; 1 mg/kg i.v., 1.5 hours): 14 µg/mL
- Mean plasma exposure ([1]; 1 mg/kg i.v., 3 hours): 17 µg/mL
- Mean plasma exposure ([1]; 5 mg/kg i.v., 1.5 hours): 89 µg/mL
- Mean plasma exposure ([1]; 5 mg/kg i.v., 3 hours): 78 µg/mL
- Specific activity (slope coefficient/pmol) [2]: 14.1
- Amyloid β 1-40 peptide degraded (amyloid β 1-40 peptide; batch 1): 50%
- Amyloid β 1-40 peptide degraded (amyloid β 1-40 peptide; batch 2): 42%
- Degradation of Aβ 1-42 compared to plasma without treatment (Aβ 1-42; highest concentration 100 μg/ml): 28%
- EC50 (Aβ 1-42): 250 nM
